Experimental data taken from patent publication US20120157824.

Legend:
[1] = test system: oligopeptide linker containing the urokinase-specific cleavage sequence SGRSA (SEQ ID NO: 2)
[2] = test system: urokinase consensus sequence linker DGGSGRSAGGGC (SEQ ID NO: 68) linking Fe/Fe3O4 nanoplatforms
[3] = test system: T1, GAGSGRSAGAG linkage (SEQ ID NO: 66, deleted by 1 residue at each of the N-terminus and C-terminus) between nanoparticle and non-metalated TCPP
T1 sequence: GAGSGRSAGAG

[4] = test system: T2, GAGSGRSAGA oligopeptide sequence (SEQ ID NO: 66, deleted at the N-terminus by 1 residue and the C-terminus by 2 residues) linking Fe/Fe3O4/ASOX/stealth-nanoparticles into oligomers
T2 sequence: GAGSGRSAGA

[5] = test system: T3, cleavage sequence for urokinase DGAGSGRSAGAGD (SEQ ID NO: 66) linking porphyrin-labeled stealth coated Fe/Fe3O4 nanoparticles
T3 sequence: DGAGSGRSAGAGD

[6] = test system: T4, cleavage sequence DGGGSGRSAGGGD (SEQ ID NO: 65) coupled to TCPP and to stealth-coated Fe/Fe3O4 nanoparticles
T4 sequence: DGGGSGRSAGGGD

urokinase in rat urine, sequence (chain, as listed by the source): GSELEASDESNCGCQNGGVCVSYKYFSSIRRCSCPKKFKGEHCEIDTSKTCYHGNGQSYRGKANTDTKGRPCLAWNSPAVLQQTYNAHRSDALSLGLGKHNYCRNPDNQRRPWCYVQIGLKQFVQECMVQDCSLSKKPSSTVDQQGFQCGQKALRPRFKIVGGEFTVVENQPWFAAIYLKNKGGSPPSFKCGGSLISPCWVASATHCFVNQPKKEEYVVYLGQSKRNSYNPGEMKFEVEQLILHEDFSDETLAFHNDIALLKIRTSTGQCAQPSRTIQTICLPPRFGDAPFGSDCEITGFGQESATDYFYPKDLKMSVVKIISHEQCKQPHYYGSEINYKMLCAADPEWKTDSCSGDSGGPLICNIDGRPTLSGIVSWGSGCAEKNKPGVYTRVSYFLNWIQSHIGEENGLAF
urokinase in canine urine, sequence (chain, as listed by the source): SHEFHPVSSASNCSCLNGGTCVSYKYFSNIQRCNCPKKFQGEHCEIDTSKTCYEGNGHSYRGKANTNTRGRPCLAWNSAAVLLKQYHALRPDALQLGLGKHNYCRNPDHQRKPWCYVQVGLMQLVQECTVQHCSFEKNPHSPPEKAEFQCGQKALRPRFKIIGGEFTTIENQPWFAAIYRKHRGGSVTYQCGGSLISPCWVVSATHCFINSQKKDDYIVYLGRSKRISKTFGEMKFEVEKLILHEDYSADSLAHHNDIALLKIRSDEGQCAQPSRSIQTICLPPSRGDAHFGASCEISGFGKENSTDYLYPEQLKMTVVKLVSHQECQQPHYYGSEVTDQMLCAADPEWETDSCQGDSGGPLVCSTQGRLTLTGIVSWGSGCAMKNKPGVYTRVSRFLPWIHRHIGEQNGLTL

With urokinase in rat urine the “luminescence of TCPP released from the nanoplatform, 36 day urine” value [1] was “the luminescence from TCPP increased steadily over time for the 36 day urine”, the “luminescence of TCPP released from the nanoplatform, control (5 day urine)” value [1] was “The control (5 day urine) did not demonstrate a significant increase in luminescence” and the “UV/Vis backscattering spectrum of the nanoparticle-dimer over 120 minutes, rat urine (estimated urokinase 5×10^-10 M)” value [2] was “The change in the optical properties is clearly discernible upon the cleavage of the oligopeptides-linker by urokinase”.

In the case of “urokinase (Sigma Aldrich, St. Louis, Mo.)”, the fluorescence lifetime τ1, Fe/Fe3O4-linkage-TCPP plus urokinase (1×10^-7 M) [3] is reported as 1.39 ns, the fluorescence lifetime τ1, Fe/Fe3O4/ASOX/Au-linkage-TCPP plus urokinase (1×10^-7 M) [3] is reported as 1.47 ns and the fluorescence lifetime τ2, Fe/Fe3O4-linkage-TCPP plus urokinase (1×10^-7 M) [3] is reported as 30 ns. The fluorescence lifetime τ2, Fe/Fe3O4/ASOX/Au-linkage-TCPP plus urokinase (1×10^-7 M) [3] was 29.3 ns, the “overall fluorescence enhancement, 10 min. after urokinase was added” value [3] was “The overall fluorescence enhancement of this system was approx. 75 (10 min. after urokinase was added)” and the relative contribution f1, Fe/Fe3O4-linkage-TCPP plus urokinase (1×10^-7 M) [3] was 78. The relative contribution f1, Fe/Fe3O4/ASOX/Au-linkage-TCPP plus urokinase (1×10^-7 M) [3] was 80, the relative contribution f2, Fe/Fe3O4-linkage-TCPP plus urokinase (1×10^-7 M) [3] was 22 and the relative contribution f2, Fe/Fe3O4/ASOX/Au-linkage-TCPP plus urokinase (1×10^-7 M) [3] was 20. The “T1 of H2O 10 minutes after adding 1×10^-14 mol urokinase per ml (3.004 seconds before)” value [4] was “After 10 minutes, T1 had decreased to 2.003 seconds”, the “T2 of H2O 10 minutes after adding 1×10^-14 mol urokinase per ml (0.07579 seconds before)” value [4] was “T2 had increased to 0.1334 seconds” and the “T1 relaxivity r1 after protease cleavage of the linker” value [1] was “r1 increased slightly to 180±20 mM s^-1”. The “T2 relaxivity r2 after protease cleavage of the linker” value [1] was “r2 increased to -2,350±250 mM s^-1”, the r2/r1 (MRI relaxivity ratio) at t = 0 min [5] was -27.6 and the r2/r1 (MRI relaxivity ratio) at t = 5 min [5] was -21.9. It also gave a r2/r1 (MRI relaxivity ratio) at t = 10 min [5] of -19.6, a r2/r1 (MRI relaxivity ratio) at t = 15 min [5] of -16.8 and a r2/r1 (MRI relaxivity ratio) at t = 20 min [5] of -16.5. It also gave a r2/r1 (MRI relaxivity ratio) at t = 25 min [5] of -15.8, a r2/r1 (MRI relaxivity ratio) at t = 30 min [5] of -15.3 and a r2/r1 (MRI relaxivity ratio) at t = 40 min [5] of -14.8. The r2/r1 (MRI relaxivity ratio) at t = 50 min [5] was -14.1, the r2/r1 (MRI relaxivity ratio) at t = 60 min [5] was -13.5 and the “optical extinction (absorption + scattering) over 40 min, urokinase 1×10^-10 M” value [6] was “the observable change of the extinction is caused by the change in scattering once the oligopeptide-tether is cleaved by the enzyme”. For the same substance, the “signal intensity at 440 nm divided by signal intensity at 600 nm vs. time” value [6] was “a linear slope has been obtained”.

For urokinase in canine urine, the “fluorescence enhancement over time, Sample B (dog undergoing chemotherapy)” value [1] was “had a detectable enhancement in fluorescence than the control (Sample A), but was still much lower than Sample C” and the “fluorescence enhancement over time, Sample C (dog just diagnosed with cancer)” value [1] was “showed a rapid increase in fluorescence”.
